PMC6685158

Target: NKG2D receptor on primary human NK cells (human (endogenous in primary NK cells)) (UniProt P26718)
UniProt P26718, sequence (P26718 whole entry): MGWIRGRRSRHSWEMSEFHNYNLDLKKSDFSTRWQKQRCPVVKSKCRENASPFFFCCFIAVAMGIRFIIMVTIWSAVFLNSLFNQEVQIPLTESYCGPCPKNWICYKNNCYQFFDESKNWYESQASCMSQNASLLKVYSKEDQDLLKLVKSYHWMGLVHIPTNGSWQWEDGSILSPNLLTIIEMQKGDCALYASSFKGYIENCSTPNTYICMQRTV

NK cell cytolytic activity (7-AAD uptake of CD56- target cells), fresh NK cells with target cells 4 h at 10 to 1 effector to target ratio; parental C1R control approximately 15%: 40%
Substance: Full-length human MICA*002 on C1R-MICA*002 cells (from UniProt Q29983 24-383) (ligand)
